Experimental data: patent US20200385463A1 (LANOVA MEDICINES, published 2020)

Tests used:
[1] = target: Human claudin 18.2 (CLDN18.2), wild-type (human); assay: cell-based or functional assay
[2] = target: Human claudin 18.2 (CLDN18.2), wild-type (human); assay: cell-based or functional assay; remark: listed apart in the source

| Binder | EC50 (pM), ADCC Reporter Bioassay (luciferase; Jurkat effector cells with FcγRIIIa V158 and NFAT response element) [1] [pM] | EC50 (pM), ADCC Reporter Bioassay (luciferase, Jurkat effector cells) [2] [pM] |
| --- | --- | --- |
| 78E8G9G6 chimeric antibody (antibody, V domains shown) VH: QVQLKESGPGLVAPSQSLSITCTVSGFSLISYGVHWVRQPPGKGLEWLGVIWAGGRTNYNSALMSRLSISKDNSKSQVFLKMNSLQTYDTAMYYCARDRYGGNSLDYWGQGTSVTVSS VL: DIVMTQSPSSLTVTAGEKVTMNCRSIQSLLNSGNQKNYLSWYQQKPGQPPKLLIYWASTRESGVPDRFTGSGSGTDFTLTIRSVLDEDLAVYYCQNSYSYPFTFGSGTKLEMK | 15.9 | – |
| 4F11E2 -HC N55Q-LC S32A (antibody, V domains shown) VH: EVQLVESGGGLVQPGGSLRLSCAASGFTFSTFGMHWVRQAPGKGLEWVSYITSGQSPIYFTDTVKGRFTISRDNAKNSLYLQMNSLRAEDTAVYYCARSSYYGNSMDYWGQGTLVTVSS VL: DIVMTQSPDSLAVSLGERATINCRSSQSLLNAGNRKNYLTWYQQKPGQPPKLLIYWASTRESGVPDRFSGSGSGTDFTLTISSLQAEDVAVYYCQNAYSYPFTFGGGTKLEIK | – | 414 |
| 72C1B6A3-HC WT-LC N31E (antibody, V domains shown) VH: QVQLVQSGAEVKKPGASVKVSCKASGYTFTTYPIEWVRQAPGQRLEWMGNFHPYNDDTKYNEKFKGRVTITRDTSASTAYMELSSLRSEDTAVYYCARRAYGYPYAMDYWGQGTLVTVSS VL: DIVMTQSPDSLAVSLGERATINCKSSQSLLESGNQKNYLTWYQQKPGQPPKLLIYRASSRESGVPDRFSGSGSGTDFTLTISSLQAEDVAVYYCQNDYIYPYTFGGGTKLEIK | – | 1650 |
| 72C1B6A3 chimeric antibody (antibody, V domains shown) VH: QVQLQQSGGELVKPGASVKMSCKAFGYTFTTYPIEWMKQNHGKSLEWIGNFHPYNDDTKYNEKFKGKAKLTVEKSSSTVYLEVSRLTSDDSAVYYCARRAYGYPYAMDYWGQGTSVTVSS VL: DIVMTQSPSSLTVTAGEKVTMSCKSSQSLLNSGNQKNYLTWYQQRPGQPPKLLIYRASSRESGVPVRFTGSGSGTDFTLTISSVQAEDLAVYYCQNDYIYPYTFGGGTKLEMN | 46.3 | – |
| 120B7B2 chimeric antibody (antibody, V domains shown) VH: EVQLQQSGPELVKPGASVKMSCKASGYTFTGYIIQWMKQKPGLGLEWIGFINPYNDGTKYNEQFKGKATLTSDKSSNAAYMELSSLTSEDSAVYYCARAYFGNSFAYWGQGTLVTVSA VL: DIVMTQSPSSLTVTAGEKVTMSCKSSQSLLNSGNQKNYLTWYQQRPGQPPKLLMYWASTRESGVPDRFTGSGSGTDFTLTISSGQAEDLAIYFCQNGYYFPFTFGSGTKLETK | 5.81 | – |
| 4F11E2 chimeric antibody (antibody, V domains shown) VH: DVQLVESGGGLVQPGGSRKLSCAASGFTFSTFGMHWVRQAPEKGLEWVAYITSGNSPIYFTDTVKGRFTISRDNPKNTLFLQMTSLGSEDTAVYYCARSSYYGNSMDYWGQGTSVTVSS VL: DIVMTQSPSSLTVTAGEKVTLTCRSSQSLLNSGNRKNYLTWYQQIPGQPPKLLIYWASTRESGVPDRFTGSGSGTYFTLTISSVQAEDLAVYYCQNAYSYPFTFGSGTKLEKK | 22.2 | – |
| 12F1F4 chimeric antibody (antibody, V domains shown) VH: QVQLKESGPGLVAPSQSLSITCTVSGFSLINYGVSWVRQPPGKGLEWLGVIWGDGNTNYQSALRSRLSIRKDTSKSQVFLKLNSVHTDGTATYYCAKVGRGNAMDHWGQGISVIVSS VL: DIVMTQSPSSLTVTARERVSMTCKSSQSLFNSGNQRNYLTWYQQKPGQPPKLLIYWSSTRESGVPDRFTGSGSGTDFTLTISSVQAEDLAIYFCQNNYYYPFTFGSGTKLEIK | 36.8 | – |

Now from value to binder:

| EC50 (pM), ADCC Reporter Bioassay (luciferase; Jurkat effector cells with FcγRIIIa V158 and NFAT response element) [1] [pM] | EC50 (pM), ADCC Reporter Bioassay (luciferase, Jurkat effector cells) [2] [pM] | Binder |
| --- | --- | --- |
| – | 148 | 4F11E2 (HC N55E/LC S32A) (antibody, V domains shown) VH: EVQLVESGGGLVQPGGSLRLSCAASGFTFSTFGMHWVRQAPGKGLEWVSYITSGESPIYFTDTVKGRFTISRDNAKNSLYLQMNSLRAEDTAVYYCARSSYYGNSMDYWGQGTLVTVSS VL: DIVMTQSPDSLAVSLGERATINCRSSQSLLNAGNRKNYLTWYQQKPGQPPKLLIYWASTRESGVPDRFSGSGSGTDFTLTISSLQAEDVAVYYCQNAYSYPFTFGGGTKLEIK |
| – | 190 | 72C1B6A3 (HC WT/LC S32A) (antibody, V domains shown) VH: QVQLVQSGAEVKKPGASVKVSCKASGYTFTTYPIEWVRQAPGQRLEWMGNFHPYNDDTKYNEKFKGRVTITRDTSASTAYMELSSLRSEDTAVYYCARRAYGYPYAMDYWGQGTLVTVSS VL: DIVMTQSPDSLAVSLGERATINCKSSQSLLNAGNQKNYLTWYQQKPGQPPKLLIYRASSRESGVPDRFSGSGSGTDFTLTISSLQAEDVAVYYCQNDYIYPYTFGGGTKLEIK |
| – | 493 | 120B7B2-HC G57D&S104A-LC-N96E&N31E (antibody, V domains shown) VH: QVQLVQSGAEVKKPGASVKVSCKASGYTFTGYIIQWVRQAPGQRLEWMGFINPYNDDTKYNEQFKGRVTITRDTSASTAYMELSSLRSEDTAVYYCARAYFGNAFAYWGQGTLVTVSS VL: DIVMTQSPDSLAVSLGERATINCKSSQSLLESGNQKNYLTWYQQKPGQPPKLLIYWASTRESGVPDRFSGSGSGTDFTLTISSLQAEDVAVYYCQEGYYFPFTFGGGTKLEIK |
| – | 114 | 120B7B2 (HC G57D S104A/LC S32A G97A) (antibody, V domains shown) VH: QVQLVQSGAEVKKPGASVKVSCKASGYTFTGYIIQWVRQAPGQRLEWMGFINPYNDDTKYNEQFKGRVTITRDTSASTAYMELSSLRSEDTAVYYCARAYFGNAFAYWGQGTLVTVSS VL: DIVMTQSPDSLAVSLGERATINCKSSQSLLNAGNQKNYLTWYQQKPGQPPKLLIYWASTRESGVPDRFSGSGSGTDFTLTISSLQAEDVAVYYCQNAYYFPFTFGGGTKLEIK |
| – | 238 | 4F11E2 -HC N55Q-LC N31E (antibody, V domains shown) VH: EVQLVESGGGLVQPGGSLRLSCAASGFTFSTFGMHWVRQAPGKGLEWVSYITSGQSPIYFTDTVKGRFTISRDNAKNSLYLQMNSLRAEDTAVYYCARSSYYGNSMDYWGQGTLVTVSS VL: DIVMTQSPDSLAVSLGERATINCRSSQSLLESGNRKNYLTWYQQKPGQPPKLLIYWASTRESGVPDRFSGSGSGTDFTLTISSLQAEDVAVYYCQNAYSYPFTFGGGTKLEIK |
| 79.5 | – | 103F6D3 chimeric antibody (antibody, V domains shown) VH: QVQLQQSGAELARPGASVKMSCKASGYTFPTYSIHWLKQGPGQGLEWIGYINPNTIYTNYNQKFKYKTTLTADKSSSTAYIQLSSLTSDDSAVYYCAREGYGRGNAMDYWGQGTSVTVSS VL: DIVMTQSPSSQTVTAGEKVTLSCRSSQSLLNGGNQKNYLTWYQQKPGQPPKLLIYWASTRESGVPDRFTGSGSGTYFTFTISSVQAEDLAVYYCQNAYFYPFTFGAGTKLELK |
| 126 | – | 64G11B4 chimeric antibody (antibody, V domains shown) VH: QVQLHQSGTELVRPGTSVKVSCKASGYAFTNYLLEWVKQRPGQGLEWIGEINPGNGGSNYNEKFKGKATLTADKSSSTAYMQLSSLTSVDSAVYFCARIYYGNSFAYWGQGTLVTVSA VL: DIVMTQSPSSLTVTAGEKVTMNCKSSQSLLNSGNQRNYLTWYQQKPGQPPKLLIYWASTRESGVPDRFTGSGSGTDFTLTISSVQADDLAVYYCQNDYFYPFTFGAGTNLELK |
